{
  "source": "the DeepSol protein solubility set",
  "data": [
    {"assay": "soluble on expression in E. coli; label from the status in PepcDB or PDB records", "values": [
      {"sequence": "MTLLRGTVRTKTSCQLVSAIGTQNCTVWEGYEVSEITPGNSNTSYITWKRSVPNTNLSQPITSCPASTVKFPTCKVGWKLFPRYNTYWCLTLGINRRERDGYLLQFDQSFSYVACRWDGSEFIDGRISGLESNEERAYATDRAYQIMKQNMRETLFVFPSNVRLGWGVWVDGVKDVAGQVKYSDTTLNLKLGYKWDIGQPNWVSRKQACVMLMVPVNQSSRSNGSLRTAEYLRSI", "soluble on expression in E. coli": "not soluble"},
      {"sequence": "DDIHLIATSDVLYFKAEEKYVSVYAQQGKGEVQEYLIRTSLKELIGQLNPEQFWQVHRSSVVQVSKISKVNKDFAGRMFVYVGETKLPVSRASQSLFKGM", "soluble on expression in E. coli": "not soluble"},
      {"sequence": "MATAADSVYSIESPKAAKSLMLDVVHAGKRLVAVGDRGHILYSDDQGQTWVQAKVPTRQLLTAVYFVDDKRGWAVGHDAQVLASSDGGATWTRQFQDLKREAPLLDVWFKDTQTGYAVGAYGALLETSDGGQHWEDVSDRLDNEDQFHLNAIAQVKDSGLFIVGEQGSMFRSADDGQTWERLEGPYEGSLFGVIGTGQPATLLVYGLRGNLYRSTDFGSTWEQVELEHHHHHH", "soluble on expression in E. coli": "soluble"},
      {"sequence": "MPKTISVRVTTMDAELEFAIQPNTTGKQLFDQVVKTIGLREVWFFGLQYQDTKGFSTWLKLNKKVTAQDVRKESPLLFKFRAKFYPEDVSEELIQDITQRLFFLQVKEGILNDDIYCPPETAVLLASYAVQSKYGDFNKEVHKSGYLAGDKLLPQRVLEQHKLNKDQWEERIQVWHEEHRGMLREDAVLEYLKIAQDLEMYGVNYFSIKNKKGSELWLGVDALGLNIYEQNDRLTPKIGFPWSEIRNISFNDKKFVIKPIDKKAPDFVFYAPRLRINKRILALCMGNHELYMRRRKP", "soluble on expression in E. coli": "soluble"},
      {"sequence": "MTELARLKFYATQPHPCSYLPEEQATTLFLDPSQPMDTQLYASLSEVGFRRSGDHLYRPHCQHCTACIAARIPVADFSPNRQQRRILKRNAELQVIRKRPSFNEEYYDLYRRYIEQRHADGDMYPPSRDQFATFLVRDLPFCCFFEFRLHGRLLAIAVTDVLPNGLSAVYTFYDPDEEQRSLGRYAILWQIAETERLGLQAVYLGYWIKNCRKMNYKTQYRPIELFVNQRWVALTLEHHHHHH", "soluble on expression in E. coli": "not soluble"},
      {"sequence": "MNKIETDTLLLPVIGESPAGDDIEYDPVYSEIREARQNDPDYMSQGEWAVSEPRRADWRKVRKLCEVTLRNKSKDLQISCWYVESLTHLYALEGMHCGLEYLAKFISQYWTTCWPSQEEGQEIRYSKLVRLDIDLSEYLKAYPLLEDKEITLSEWYKVLSFEHGASLSEAGKERLIESEGDHSVESFKRAVGKYNPRKVSEQLLQLYDLPDKIDEIESSYFFHTHEDIHHIFAKTRHIISEITELLSRFLPQETLDHSSVSQFLGKPDSRDTRTALPEEKKEFYSALTPSTDKEMSREKAIEQLEKIAIFFRQSEPTSPVPYLLERAIRWSTMTMSEWLEELLKDNDSMEQINRVLKG", "soluble on expression in E. coli": "not soluble"},
      {"sequence": "MGSDKIHHHHHHMTHPQDQHPPQDARTLPTRDHDASEALLERVRQAAATGTALRLVGGGSKGFYGRPVVGETLSLAEHTGIVNYDPVELVVTVRAGTRLADLQAVLAQEGQQLAFEPPHFGENATVGGTVACGLSGPRRPWAGSVRDFVLGTRMITHDGKRLHFGGEVMKNVAGYDLSRLMVGAQGTLGIIDEVSFKVLPRPAASATLRLEMGLGDAMARLAEWGRKPMPITGAAHDGETLHLRLEGGASSVANTQAQLGGELDDTAFWTQLRELELAFFSRRHDDRPLWRLSLPHRAPPLALDGDTLVDWAGAQRWLRSELPAATIRQHAAQAGGHATLVDRDRAHGVDAPFTPLSVVMDKYHRQLKAKLDPKGIFNPGRLYEGL", "soluble on expression in E. coli": "not soluble"},
      {"sequence": "VRALLAQNRLVTLCGTGGVGKTRLAIQIASASELRDGLCFVDLAPITESGIVAATAARAVGLPDQPGRSTMDSLRRFIGNRRMLMVLDNCEHLLDACAALVVELLGACPELTILATSREPIGMAGEITWRVPSMSITDEAVELFADRASRVQPGFTIANHNAAAVGEICRRLDGIPLAIEFAAARVRSMSPLEIADGLDDCFRLLAGGVRGAVQRQQTLRASIDWSHALLTETEQILFRRLAPFVGGFDLAAVRAVAAGSDLDPFSVLDQLTLLVDKSLVVADDCQGRTRYRLLETVRRYALEKLGDSGEADVHARHRDYYTALAASLNTPADNDHQRLVARAETEIDNLRAAFAWSRENGHITEALQLASSLQPIWFGRAHLREGLSWFNSILEDQRFHRLAVSTAVRARALADKAMLSTWLATSPVGATDIIAPAQQALAMAREVGDPAALVRALTACGCSSGYNAEAAAPYFAEATDLARAIDDKWTLCQILYWRGVGTCISGDPNALRAAAEECRDLADTIGDRFVSRHCSLWLSLAQMWAGNLTEALELSREITAEAEASNDVPTKVLGLYTQAQVLAYCGASAAHAIAGACIAAATELGGVYQGIGYAAMTYAALAAGDVTAALEASDAARPILRAQPDQVTMHQVLMAQLALAGGDAIAARQFANDAVDATNGWHRMVALTIRARVATARGEPELARDDAHAALACGAELHIYQGMPDAMELLAGLAGEVGSHSEGVRLLGAAAALRQQTRQVRFKIWDAGYQASVTALREAMGDEDFDRAWAEGAALSTDEAIAYAQRGRGERKRPARGWGSLTPTERDVVRLVSEGLSNKDIAKRLFVSPRTVQTHLTHVYAKLGLPSRVQLVDEAARRGSPS", "soluble on expression in E. coli": "not soluble"},
      {"sequence": "MSAESERKTETIPEWKQEEVDAIVEMIESYESVGVVNIAGIPSRQLQDMRRDLHGTAELRVSRNTLLERALDDVDDGLEDLNGYITGQVGLIGTDDNPFSLFQELEASKTPAPIGAGEVAPNDIVIPEGDTGVDPGPFVGELQSVGADARIQEGSIQVLSDSTVLDTGEEVSQELSNVLNELGIEPKEVGLDLRAVFADGVLFEPEELELDIDEYRSDIQAAAGRAFNLSVNADYPTATTAPTMLQSDRGNAKSLALQAAIEDPEVVPDLVSKADAQVRALASQIDDEEALPEELQGVEADVATEEPTDDQDDDTASEDDADADDAAEEADDDDDDDEDAGDALGAMF", "soluble on expression in E. coli": "soluble"},
      {"sequence": "MQAAPQGGIYNYFHSLLPPLSLAPFLPRTPLPSTSLFCKGLKKERYKPRFRPRECHCSVENLHLGHEMQNSHRTICKSALQLLPPSWSDPFRRRDADFPPNSPSPARPSSENASNRAKEKVHLSPIIALCISHHTSQEKLFTQHLMNMPTGETHKSPPS", "soluble on expression in E. coli": "not soluble"},
      {"sequence": "MKVYYPGREWPEEYKRVLEKMKEIIDPVTGDNILDSGVVAGLEVKDRTLKVWLRFESQAEYNILGGAAMAYSKIVGDIMEKFALVMFDNVYVYDLRNNIVGVFEKKK", "soluble on expression in E. coli": "soluble"},
      {"sequence": "SLTGKKAEEEYLYQLEQLNQLFTKTEALEESKIFYKNIKFERGLFASHIQDQIEIHKANETIIIPLSSTLYHGPLPLDRVAKLNFVPAIFSSQTLLGKNATTQAFFDITESEKPLQLNFAMNYSLSGNAELKLASGQYHNEQSKTDFDWSNVVLNIDLNQNTPNNYVLSVDTFNSNAPNHAVSTASSIKIKDLVVQGSLQSTKWPFIYSGNINSKIGYFEQNTESAESGEKFSLIQKNSQANLTTQVEGDTVNIINKTNLDELHINGNNLGKVTNNVEFNHIDGNALQELLNILVAIGKADSECLYLKHWCKNYNKQAWPLRIISLKLSLPLFLFLMKKAKWHWI", "soluble on expression in E. coli": "not soluble"},
      {"sequence": "MEFELEQHTPIIHFQARDAGATLRASEVKPKLDKFILTQIGKRFVKKTASTTEKNFIERGIEYFQNKDEEARRVYEEEKKKGNKGAKLELCLIPGQEGALNYKLSFKLSPDAKVQYFLPMSSNPKEIDKLKSLAQEKLGVQEVEMLPLTSYFANEDKAKSEPNIKHGDTPDQIKNKKRIFEENWQKVQLATFVNTPVEGVIRFQNAGLREEVNNLITNFFMLHNFGARQSKGFGSFIISLRDGKEEEDYFDTGCACYGYSFYIPAKTLEEALRKINYFYRSLRSGFNEYRGKNEIFYAKSGMHFYATKHNFEWDKKSIKGMLFDRDKDLEGKMKKEELFAFRDLLGLSSNERWQSYKTTITKECRNKKGEKFDRIKSPIQFKPICYSKYDYIVFFDLFPEKSGIPQLKGGKVVVKSSRHKGAVLELKIQEDIDLYNVFNEIFSELNFESQVGEYDSLTDAKEIFETMKDIYEQLNKNCHE", "soluble on expression in E. coli": "not soluble"},
      {"sequence": "MASDLESSLTSIDWLPQLTLRATIEKLGSASQAGPPGSSRKCSPGSPTDPNATLSKDEAAVHQDGKPRYSYATLITYAINSSPAKKMTLSEIYRWICDNFPYYKNAGIGWKNSIRHNLSLNKCFRKVPRPRDDPGKGSYWTIDTCPDISRKRRHPPDDDLSQDSPEQEASKSPRGGVAGSGEASLPPEGNPQMSLQSPTSIASYSQGTGSVDGGAVAAGASGRESAEGPPPLYNTNHDFKFSYSEINFQDLSWSFRNLYKSMLEKSSSSSQHGFSSLLGDIPPSNNYYMYQQQQPPPPQQQQQQQQPPQPPPQQSQPQQQQAPAQGPSAVGGAPPLHTPSTDGCTPPGGKQAGAEGYGPPPVMAMHPPPLQHGGYHPHQHHPHSHPAQQPPPPQPQAQGQAPINNTGFAFPSDWCSNIDSLKESFKMVNRLNWSSIEQSQFSELMESLRQAEQKNWTLDQHHIANLCDSLNHFLTQTGHVPPQGGTHRPPAPARIADSCALTSGKQESAMSQVNSYGHPQAPHLYPGPSPMYPIPTQDSAGYNRPAHHMVPRPSVPPPGANEEIPDDFDWDLIT", "soluble on expression in E. coli": "soluble"},
      {"sequence": "MRFTISAAKPEDCKDIERMIMELAVYENMPDQVKISHKELERDGFGPNPFYHCLVAEVPEEHKSKDGNTTVGYVIFFYTYSTWKGRTVYMEDLYVMPEFRGNGIGKALLGAVAKEAKDQLCSRLQFSVLDWNKPSLDFYMAKGAEDLTAKEGWHFLRFHGMALDNLAQEAP", "soluble on expression in E. coli": "not soluble"},
      {"sequence": "MGSDKIHHHHHHMACVRDKPVSGPPTSLSAPHLRISLAFRGGLCPYSRARPEKDYAFKGNFVLRDLIANGQSMRTISLPRGRQRLHAMPTSTGYEVREDEIYDWDGRKRGQTPFTVLQHTISGTGRLRYENRNYRLQENDTLLVLVPHNHRYWLASDERWEYFWISMNGEEALRIHKSILSISGPVFRLKPATIDHLADCSLRLINGAASAGAASAIAYEAAMALYDDVFGSHAFAEKLSAMQPVIDHINANLDRPLPVADLVQISGLSRAHFSRCFAESEGLPPAEFVLQQRLQRAAKLLTKADFLPVKEVAILCGFEDANYFSKVFRRLYGTTPSQFRTTGMYANLRTPARRGVRVSDDET", "soluble on expression in E. coli": "not soluble"},
      {"sequence": "AEGKLNDELAKNKGKIPGLKIDQKIRGQMPERGWTEDDIKNTVSNGATGTSFDKRSPKKTPPDYLGRNDPATVYGSPGKYVVVNDRTGEVTQISDKTDPGWVDDSRIQWGNKNDQ", "soluble on expression in E. coli": "soluble"},
      {"sequence": "GIEIVNRKAVWYLTSEIKETETGIEVSAGELHKGDEEVFPVEEVSFDLTPDDTYPVEYMLYLHMNVQTKKVSWSLCKAYLDGEGYCDYQGNERLIMYPVSVTVFPNGTREGTIFLYEKEDREPDRKPPVIVEPQPVGEIGTPDIDE", "soluble on expression in E. coli": "soluble"},
      {"sequence": "MSSATTNSKIIHATRQHVYEALTQKEALEFWLAPDQMTGKIHDFDLSVGGGYTMSLFYTDNSIKGKTSGNEDRYTSTFIELQPYEKVVHSITFQSEKKEFEEAMIMEVFLEEKGKDVTNVTIFFKNIPAGITPEDNEAGTKESLDKLARYLENNNRSASEKKLEHHHHHH", "soluble on expression in E. coli": "soluble"},
      {"sequence": "MNVLVIEDDKVFRGLLEEYLSMKGIKVESAERGKEAYKLLSEKHFNVVLLDLLLPDVNGLEILKWIKERSPETEVIVITGHGTIKTAVEAMKMGAYDFLTKPCMLEEIELTINKAIEHRKLRKENELLRREKDLKEEEYVFESPKMKEILEKIKKISCAECPVLITGESGVGKEVVARLIHKLSDRSKEPFVALNVASIPRDIFEAELFGYEKGAFTGAVSSKEGFFELADGGTLFLDEIGELSLEAQAKLLRVIESGKFYRLGGRKEIEVNVRILAATNRNIKELVKEGKFREDLYYRLGVIEIEIPPLRERKEDIIPLANHFLKKFSRKYAKEVEGFTKSAQELLLSYPWYGNVRELKNVIERAVLFSEGKFIDRGELSCLVNSK", "soluble on expression in E. coli": "soluble"}
    ]}
  ]
}
